Results on one substance are retold here after patent publication US8273855.

What all share (test): cell-based or functional assay
For experiment [1], the target named is Notch on primary rat oligodendrocytes and oligodendrocyte precursor cells (rat) (UniProt Q07008).
Experiment [2] concerns the target myc-tagged full-length mouse Notch1 on transfected OLN cells (mouse) (UniProt Q01705).
In experiment [3] the target is Notch1 of mouse neural stem cells (NSCs) (mouse) (UniProt Q01705).
Notch1 of mouse neural stem cells (NSCs) (mouse), sequence (Q01705 19-2531 limits assumed): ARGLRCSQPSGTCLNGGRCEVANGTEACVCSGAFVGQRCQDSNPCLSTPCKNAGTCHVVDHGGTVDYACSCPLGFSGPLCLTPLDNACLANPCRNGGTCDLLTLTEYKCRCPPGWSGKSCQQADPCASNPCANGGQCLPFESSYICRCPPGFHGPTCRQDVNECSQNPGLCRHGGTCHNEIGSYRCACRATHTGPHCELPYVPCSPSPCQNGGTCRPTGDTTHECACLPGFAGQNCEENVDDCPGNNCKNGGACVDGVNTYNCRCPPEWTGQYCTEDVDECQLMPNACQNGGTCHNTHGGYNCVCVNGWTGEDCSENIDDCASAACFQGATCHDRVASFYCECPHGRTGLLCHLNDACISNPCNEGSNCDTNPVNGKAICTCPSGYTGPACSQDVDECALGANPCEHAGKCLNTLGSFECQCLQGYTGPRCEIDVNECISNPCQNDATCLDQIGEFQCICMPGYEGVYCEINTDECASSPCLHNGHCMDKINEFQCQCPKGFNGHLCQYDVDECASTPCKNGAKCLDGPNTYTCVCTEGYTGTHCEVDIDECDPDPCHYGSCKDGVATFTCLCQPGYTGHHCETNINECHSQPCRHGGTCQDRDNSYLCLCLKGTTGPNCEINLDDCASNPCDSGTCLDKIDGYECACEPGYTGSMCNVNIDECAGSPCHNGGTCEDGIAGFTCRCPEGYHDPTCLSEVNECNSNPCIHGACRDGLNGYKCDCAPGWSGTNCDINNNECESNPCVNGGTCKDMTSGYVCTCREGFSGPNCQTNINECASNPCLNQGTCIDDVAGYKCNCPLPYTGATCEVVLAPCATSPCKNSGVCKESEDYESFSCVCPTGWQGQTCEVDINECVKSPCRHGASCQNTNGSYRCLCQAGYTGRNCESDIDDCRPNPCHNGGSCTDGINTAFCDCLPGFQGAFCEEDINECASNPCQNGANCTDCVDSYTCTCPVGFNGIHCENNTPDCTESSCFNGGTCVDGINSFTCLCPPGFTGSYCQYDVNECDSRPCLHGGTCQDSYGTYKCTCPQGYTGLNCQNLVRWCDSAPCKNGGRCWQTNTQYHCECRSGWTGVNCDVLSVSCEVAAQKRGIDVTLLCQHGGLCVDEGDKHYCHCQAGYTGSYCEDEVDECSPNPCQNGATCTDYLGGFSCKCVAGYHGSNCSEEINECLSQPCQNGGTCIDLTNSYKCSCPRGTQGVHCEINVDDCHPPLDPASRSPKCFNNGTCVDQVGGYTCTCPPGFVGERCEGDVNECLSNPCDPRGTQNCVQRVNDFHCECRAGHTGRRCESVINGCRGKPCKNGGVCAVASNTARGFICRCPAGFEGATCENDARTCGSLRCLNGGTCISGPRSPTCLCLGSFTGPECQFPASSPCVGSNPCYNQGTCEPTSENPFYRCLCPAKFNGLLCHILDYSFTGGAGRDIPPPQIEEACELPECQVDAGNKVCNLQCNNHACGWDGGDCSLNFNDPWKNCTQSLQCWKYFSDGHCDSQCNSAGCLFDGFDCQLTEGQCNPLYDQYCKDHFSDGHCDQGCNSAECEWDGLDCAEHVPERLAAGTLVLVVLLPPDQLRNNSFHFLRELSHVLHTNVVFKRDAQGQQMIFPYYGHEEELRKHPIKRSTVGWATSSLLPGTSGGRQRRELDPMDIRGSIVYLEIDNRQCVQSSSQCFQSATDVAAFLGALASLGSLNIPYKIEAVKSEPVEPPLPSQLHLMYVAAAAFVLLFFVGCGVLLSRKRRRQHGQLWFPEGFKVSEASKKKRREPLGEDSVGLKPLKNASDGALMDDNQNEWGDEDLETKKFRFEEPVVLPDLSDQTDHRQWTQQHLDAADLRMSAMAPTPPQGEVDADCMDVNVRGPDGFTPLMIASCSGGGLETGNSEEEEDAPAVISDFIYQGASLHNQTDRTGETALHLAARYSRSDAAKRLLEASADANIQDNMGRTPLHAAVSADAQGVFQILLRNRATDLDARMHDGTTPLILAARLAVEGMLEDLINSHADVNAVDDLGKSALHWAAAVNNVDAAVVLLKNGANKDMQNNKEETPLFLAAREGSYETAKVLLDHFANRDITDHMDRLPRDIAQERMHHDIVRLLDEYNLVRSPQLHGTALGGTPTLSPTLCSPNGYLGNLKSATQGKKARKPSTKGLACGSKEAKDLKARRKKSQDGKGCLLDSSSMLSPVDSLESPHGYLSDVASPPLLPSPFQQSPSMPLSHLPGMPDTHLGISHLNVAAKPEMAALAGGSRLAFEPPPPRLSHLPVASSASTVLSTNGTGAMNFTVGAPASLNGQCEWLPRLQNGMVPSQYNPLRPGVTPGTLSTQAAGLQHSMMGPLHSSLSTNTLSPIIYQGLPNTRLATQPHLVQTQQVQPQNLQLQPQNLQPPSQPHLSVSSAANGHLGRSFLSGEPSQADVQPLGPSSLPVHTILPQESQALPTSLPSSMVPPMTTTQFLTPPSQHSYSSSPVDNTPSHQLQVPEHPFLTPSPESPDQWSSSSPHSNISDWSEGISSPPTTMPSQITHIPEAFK

Notch on primary rat oligodendrocytes and oligodendrocyte precursor cells (rat), sequence (Q07008 19-2531): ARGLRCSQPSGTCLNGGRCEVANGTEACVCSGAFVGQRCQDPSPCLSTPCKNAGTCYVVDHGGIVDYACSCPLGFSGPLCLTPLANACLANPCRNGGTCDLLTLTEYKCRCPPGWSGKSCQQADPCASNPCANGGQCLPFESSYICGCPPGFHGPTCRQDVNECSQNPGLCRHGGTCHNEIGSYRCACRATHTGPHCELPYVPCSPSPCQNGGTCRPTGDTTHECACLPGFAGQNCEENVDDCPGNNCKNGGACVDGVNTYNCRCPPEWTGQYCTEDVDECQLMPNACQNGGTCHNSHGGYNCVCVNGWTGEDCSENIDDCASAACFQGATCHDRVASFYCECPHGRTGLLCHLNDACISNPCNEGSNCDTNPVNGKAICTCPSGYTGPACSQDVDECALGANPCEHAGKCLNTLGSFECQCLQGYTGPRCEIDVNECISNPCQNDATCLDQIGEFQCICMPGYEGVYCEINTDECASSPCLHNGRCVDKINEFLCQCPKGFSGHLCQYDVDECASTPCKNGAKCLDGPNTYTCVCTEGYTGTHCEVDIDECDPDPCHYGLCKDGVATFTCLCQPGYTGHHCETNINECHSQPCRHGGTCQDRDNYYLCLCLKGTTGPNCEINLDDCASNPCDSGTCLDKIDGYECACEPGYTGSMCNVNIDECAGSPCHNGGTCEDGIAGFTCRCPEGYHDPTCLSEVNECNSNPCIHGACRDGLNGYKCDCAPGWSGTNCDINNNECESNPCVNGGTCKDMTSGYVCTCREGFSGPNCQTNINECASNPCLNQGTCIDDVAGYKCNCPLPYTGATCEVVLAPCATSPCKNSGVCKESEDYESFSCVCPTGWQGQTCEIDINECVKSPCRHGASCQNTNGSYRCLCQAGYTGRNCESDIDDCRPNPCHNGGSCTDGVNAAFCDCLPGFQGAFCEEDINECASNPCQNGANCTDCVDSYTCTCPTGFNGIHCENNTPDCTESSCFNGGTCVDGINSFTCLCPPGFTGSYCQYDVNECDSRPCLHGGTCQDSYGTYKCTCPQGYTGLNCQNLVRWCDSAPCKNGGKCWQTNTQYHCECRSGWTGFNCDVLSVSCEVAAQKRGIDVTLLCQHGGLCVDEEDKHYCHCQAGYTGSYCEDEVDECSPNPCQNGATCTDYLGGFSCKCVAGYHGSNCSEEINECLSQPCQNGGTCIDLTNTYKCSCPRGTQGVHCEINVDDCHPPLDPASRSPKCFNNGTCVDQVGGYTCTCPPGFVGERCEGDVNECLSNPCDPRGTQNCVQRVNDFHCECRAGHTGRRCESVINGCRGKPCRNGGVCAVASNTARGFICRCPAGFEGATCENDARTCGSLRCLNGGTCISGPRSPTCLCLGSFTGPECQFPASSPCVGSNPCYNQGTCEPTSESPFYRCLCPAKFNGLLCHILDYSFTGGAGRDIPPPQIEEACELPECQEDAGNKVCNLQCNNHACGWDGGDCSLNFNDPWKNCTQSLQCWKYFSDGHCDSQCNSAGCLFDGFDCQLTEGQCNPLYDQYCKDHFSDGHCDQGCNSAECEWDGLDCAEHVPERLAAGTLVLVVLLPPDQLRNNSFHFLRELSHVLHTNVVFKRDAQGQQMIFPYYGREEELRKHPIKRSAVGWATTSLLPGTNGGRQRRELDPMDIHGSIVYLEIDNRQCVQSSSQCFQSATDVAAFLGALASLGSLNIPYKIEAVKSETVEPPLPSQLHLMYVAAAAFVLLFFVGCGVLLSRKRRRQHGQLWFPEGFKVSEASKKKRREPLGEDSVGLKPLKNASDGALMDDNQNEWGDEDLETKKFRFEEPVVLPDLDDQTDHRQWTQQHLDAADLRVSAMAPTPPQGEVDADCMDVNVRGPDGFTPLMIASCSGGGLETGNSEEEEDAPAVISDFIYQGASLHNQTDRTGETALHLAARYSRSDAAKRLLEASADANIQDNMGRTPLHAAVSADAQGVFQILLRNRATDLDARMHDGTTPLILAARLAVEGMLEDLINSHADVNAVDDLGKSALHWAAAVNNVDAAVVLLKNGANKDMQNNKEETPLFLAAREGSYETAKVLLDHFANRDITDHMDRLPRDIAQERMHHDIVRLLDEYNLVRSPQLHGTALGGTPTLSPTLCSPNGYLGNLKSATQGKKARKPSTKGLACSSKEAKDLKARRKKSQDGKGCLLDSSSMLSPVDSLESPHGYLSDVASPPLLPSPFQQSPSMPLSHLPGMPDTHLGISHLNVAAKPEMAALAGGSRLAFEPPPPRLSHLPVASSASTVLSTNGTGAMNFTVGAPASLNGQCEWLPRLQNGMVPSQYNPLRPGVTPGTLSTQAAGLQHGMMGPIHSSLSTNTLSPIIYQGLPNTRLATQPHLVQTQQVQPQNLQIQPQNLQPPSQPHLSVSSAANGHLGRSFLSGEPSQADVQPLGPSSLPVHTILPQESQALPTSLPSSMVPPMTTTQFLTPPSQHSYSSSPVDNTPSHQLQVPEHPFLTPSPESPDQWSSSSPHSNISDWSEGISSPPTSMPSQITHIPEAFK
myc-tagged full-length mouse Notch1 on transfected OLN cells (mouse), sequence (Q01705 19-2531): as the sequence (Q01705 19-2531 limits assumed) above

Consider “NB-3 (recombinant protein, as substrate or soluble; tag not stated at these places) (from UniProt P97528 20-999) (ligand)”, for which, in experiment [1], the MAG transcripts, real-time PCR, primary OLs worked out at 24 fold and the OPC differentiation into CNPase-positive OLs amounted to 75%. This substance also came in with an MAG staining intensity in experiment [2] of 2.5 fold. For the same substance, the OL generation from NSCs, flow cytometry in experiment [3] is 2 fold.
